Two proteins from paper PMC6917504 (Biochemistry, 2017) can be followed below.

The series “SEC” deals with the molecule itself. Description: SEC.
The series “cross-linking” deals with the molecule itself. As to the kind of experiment: cross-linking.

B1: Human concentrative nucleoside transporter 3 (hCNT3, SLC28A3), wild type, purified from High Five insect cells (natural protein, UniProt Q9HAS3 1-616, looked up)
chain: MELRSTAAPRAEGYSNVGFQNEENFLENENTSGNNSIRSRAVQSREHTNTKQDEEQVTVEQDSPRNREHMEDDDEEMQQKGCLERRYDTVCGFCRKHKTTLRHIIWGILLAGYLVMVISACVLNFHRALPLFVITVAAIFFVVWDHLMAKYEHRIDEMLSPGRRLLNSHWFWLKWVIWSSLVLAVIFWLAFDTAKLGQQQLVSFGGLIMYIVLLFLFSKYPTRVYWRPVLWGIGLQFLLGLLILRTDPGFIAFDWLGRQVQTFLEYTDAGASFVFGEKYKDHFFAFKVLPIVVFFSTVMSMLYYLGLMQWIIRKVGWIMLVTTGSSPIESVVASGNIFVGQTESPLLVRPYLPYITKSELHAIMTAGFSTIAGSVLGAYISFGVPSSHLLTASVMSAPASLAAAKLFWPETEKPKITLKNAMKMESGDSGNLLEAATQGASSSISLVANIAVNLIAFLALLSFMNSALSWFGNMFDYPQLSFELICSYIFMPFSFMMGVEWQDSFMVARLIGYKTFFNEFVAYEHLSKWIHLRKEGGPKFVNGVQQYISIRSEIIATYALCGFANIGSLGIVIGGLTSMAPSRKRDIASGAVRALIAGTVACFMTACIAGILSSTP
Consider B1, for which the stoichiometry N – broadly, the number of molecules, sites or subunits per partner or assembly – in the series “SEC” was found to be 3.

B2: hCNT3 Y266C/F463C double cysteine mutant (natural protein, human, UniProt Q9HAS3 1-691, looked up)
chain: MELRSTAAPRAEGYSNVGFQNEENFLENENTSGNNSIRSRAVQSREHTNTKQDEEQVTVEQDSPRNREHMEDDDEEMQQKGCLERRYDTVCGFCRKHKTTLRHIIWGILLAGYLVMVISACVLNFHRALPLFVITVAAIFFVVWDHLMAKYEHRIDEMLSPGRRLLNSHWFWLKWVIWSSLVLAVIFWLAFDTAKLGQQQLVSFGGLIMYIVLLFLFSKYPTRVYWRPVLWGIGLQFLLGLLILRTDPGFIAFDWLGRQVQTFLECTDAGASFVFGEKYKDHFFAFKVLPIVVFFSTVMSMLYYLGLMQWIIRKVGWIMLVTTGSSPIESVVASGNIFVGQTESPLLVRPYLPYITKSELHAIMTAGFSTIAGSVLGAYISFGVPSSHLLTASVMSAPASLAAAKLFWPETEKPKITLKNAMKMESGDSGNLLEAATQGASSSISLVANIAVNLIAFLALLSCMNSALSWFGNMFDYPQLSFELICSYIFMPFSFMMGVEWQDSFMVARLIGYKTFFNEFVAYEHLSKWIHLRKEGGPKFVNGVQQYISIRSEIIATYALCGFANIGSLGIVIGGLTSMAPSRKRDIASGAVRALIAGTVACFMTACIAGILSSTPVDINCHHVLENAFNSTFPGNTTKVIACCQSLLSSTVAKGPGEVIPGGNHSLYSLKGCCTLLNPSTFNCNGISNTF
On to B2, for which, in “cross-linking”, the “stoichiometry N” value was 3.
